Earlier results as cited in paper PMC2667909.

Target: Histone H3 peptide (H3K27me3) (Drosophila melanogaster) (UniProt P02299)

## Polycomb (Pc) chromodomain (from UniProt P26017)
  Kd: 5 µM
